From patent US20050124539A1 (Takeda / Millennium, published 2005)
Each block holds one binder with its values, some of them ahead of it. No end group written: not given here. *: point of attachment. 125I = [125I]*

What was measured:
Human GPR7 [1] = target: T1, Human GPR7 (human, UniProt P48145 1-328); test: cell-based or functional assay
T1 sequence: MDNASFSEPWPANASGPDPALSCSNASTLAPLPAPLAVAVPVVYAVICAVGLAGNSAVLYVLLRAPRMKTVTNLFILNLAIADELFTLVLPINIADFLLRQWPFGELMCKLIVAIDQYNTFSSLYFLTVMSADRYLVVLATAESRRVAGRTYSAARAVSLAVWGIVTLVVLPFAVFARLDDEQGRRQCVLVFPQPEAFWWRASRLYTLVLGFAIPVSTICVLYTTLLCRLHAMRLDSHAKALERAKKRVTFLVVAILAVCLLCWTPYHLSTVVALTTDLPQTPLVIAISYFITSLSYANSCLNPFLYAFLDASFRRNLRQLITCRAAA

Human GPR7 [2] = target: T1, Human GPR7; test: cell-based or functional assay; remark: listed apart in the source
[3] = target: T2, TGR26, rat-derived G protein-coupled receptor protein (rat, UniProt Q56UD9 1-329); test: competition with [125I-Tyr10]-hGPR8L(1-23), membrane fraction of TGR26 expressing CHO cells, 3 µg/ml
T2 construct: Expressed in CHO dhfr- cells from pAK-rGPR7; also called rat TGR26; TGR26 receptor
T2 sequence: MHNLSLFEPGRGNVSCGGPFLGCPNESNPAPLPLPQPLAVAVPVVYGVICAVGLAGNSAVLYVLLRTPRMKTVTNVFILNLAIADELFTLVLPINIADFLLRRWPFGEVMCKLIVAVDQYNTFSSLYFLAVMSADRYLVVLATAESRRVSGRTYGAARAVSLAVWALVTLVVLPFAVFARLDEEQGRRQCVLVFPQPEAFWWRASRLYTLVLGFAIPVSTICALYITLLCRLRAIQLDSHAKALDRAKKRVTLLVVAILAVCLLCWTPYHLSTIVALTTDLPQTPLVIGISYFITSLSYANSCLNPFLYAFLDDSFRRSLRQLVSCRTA
Description: (§1) Cell membrane fraction prepared from TGR26 expressing cells was diluted to various concentration with assay buffer (25 mM Tris-HCl, 5 mM EDTA, 0.05% CHAPS (3-[(3-Cholamidopropyl) Dimethyl-Ammonio]-1-Propanesulfonate), 0.1% BSA, 0.5 mM PMSF, 1 μg/ml Pepstatin, 20 μg/ml Leupeptin, 4 μg/ml E-64, pH7.4), and 200 μl each of the diluent was dispensed into polypropilene test tube (Falcon 2053). In order to determine an amount of maximum binding, 2 μl of DMSO and 2 μl of 7 nM [¹²⁵-Tyr¹⁰]-hGPR8L(1-23) were added to the membrane fraction solution. Further, in order to determine a non-specific binding, 2 μl of 100 μM hGPR8L(1-23)/DMSO solution and 2 μl of 7 nM [¹²⁵I]-Tyr¹⁰]-hGPR8L(1-23) were added to the membrane fraction solution. The reaction was done at 25° C. for 75 minutes, and the reaction mixture was filtered by suction filtration using Whatman glassfilter (GF-F) treated with polyethyleneimine. In addition, the filter was washed twice with 1.5 ml of washing buffer (25 mM Tris-HCl, 5 mM EDTA, 0.05% CHAPS, 0.1% BSA, pH7.4). After filtration, a radioactivity remaining on the filter was counted using γ-counter, and an amount of specific binding was estimated by subtracting an amount of non-specific binding from an amount of maximum binding. […]

[4] = target: T3, Human GPR8 receptor protein (human, UniProt P48146 1-333); test: competition with [125I-Tyr10]-hGPR8L(1-23), membrane fraction of GPR8 expressing CHO cells
T3 construct: Full-length receptor expressed in CHO dhfr- cells (CHO/GPR8)
T3 sequence (P48146 whole entry): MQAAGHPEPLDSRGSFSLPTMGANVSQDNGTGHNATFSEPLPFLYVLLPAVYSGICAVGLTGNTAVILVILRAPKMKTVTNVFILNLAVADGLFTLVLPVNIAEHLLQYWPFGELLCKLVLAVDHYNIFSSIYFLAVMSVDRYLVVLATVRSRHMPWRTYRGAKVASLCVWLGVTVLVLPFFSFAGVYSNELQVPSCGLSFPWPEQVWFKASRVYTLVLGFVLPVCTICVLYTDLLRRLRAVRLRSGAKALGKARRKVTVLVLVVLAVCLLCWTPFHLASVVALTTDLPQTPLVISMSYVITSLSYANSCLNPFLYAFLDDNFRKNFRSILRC
Description: (§2) Cell membrane fraction prepared from Human GPR8 expressing cells was diluted to various concentration with assay buffer (25 mM Tris-HCl, 5 mM EDTA, 0.05% CHAPS (3-[(3-Cholamidopropyl) Dimethyl-Ammonio]-1-Propanesulfonate), 0.1% BSA, 0.25 mM PMSF, 1 μg/ml Pepstatin, 20 μg/ml Leupeptin, pH7.4), and 200 μl each of the diluent was dispensed into polypropilene test tube (Falcon 2053). In order to determine an amount of maximum binding (TB), […] of DMSO and 2 μl of 7 nM [¹²⁵I-Tyr²]-hGPR8L(1-23) or [¹²⁵I-Tyr¹⁰]-hGPR8L(1-23) were added to the membrane fraction solution. Further, in order to determine a non-specific binding (NSB), 2 μt of 100 μM hGPR8L(1-23)/DMSO solution and 2 μl of 7 nM [¹²⁵I]-Tyr²]-hGPR8L(1-23) or [¹²⁵I-Tyr¹⁰]-hGPR8L(1-23) were added to the membrane fraction solution. The reaction was done at 25° C. for 60 minutes, and the reaction mixture was filtered by suction filtration using Whatman glassfilter (GF-F) treated with polyethyleneimine. After filtration, a radioactivity remaining on the filter was counted using γ-counter, and an amount of specific binding (SB) was estimated by subtracting an amount of non-specific binding from an amount of maximum binding. Since the specific binding in the case where [¹²⁵I-Tyr¹⁰]-hGPR8L(1-23) was used, was twice as much as that in the case where [¹²⁵1-Tyr²]-hGPR8L(1-23) was used, in practice, [¹²⁵I-Tyr¹⁰]-hGPR8L(1-23) was used in the assay. When the concentration of membrane fraction was changed, a specific binding of [¹²⁵I-Tyr¹⁰]-hGPR8L(1-23) was perceived depending on the concentration of membrane fraction.
A receptor binding activity of human- and porcine-homologue derivatives of GPR8 ligand peptide, wherein the synthesis method has been described in the specification, was measured using a membrane fraction of GPR8 expressing CHO cells and [¹²⁵-Tyr¹⁰]-hGPR8L(1-23) by the method described in Reference Example 43.

Human GPR7 [5] = target: T1, Human GPR7; test: competition with [Phe2, 125I-Tyr10]-Human GPR8 ligand (1-20), membrane fraction of GPR7 expressing CHO cells, 15 µg/ml
Description: In order to determine an amount of maximum binding, 2 μl of DMSO and 2 μl of 7 nM [Phe², ¹²⁵I-Tyr¹⁰]-Human GPR8 ligand (1-20) were added to the membrane fraction solution. Further, in order to determine a non-specific binding, 2 μl of 100 μM hGPR8L(1-23)/DMSO solution and 2 μl of 7 nM [Phe², ¹²⁵I-Tyr¹⁰]-Human GPR8 ligand (1-20) were added to the membrane fraction solution. The reaction was done at 25° C. for 75 minutes, and the reaction mixture was filtered by suction filtration using Whatman glassfilter (GF-F) treated with polyethyleneimine. After filtration, a radioactivity remaining on the filter was counted using γ-counter, and an amount of specific binding was estimated by subtracting an amount of non-specific binding from an amount of maximum binding. When the concentration of membrane fraction was changed, a specific binding of [Phe², ¹²⁵I-Tyr¹⁰]-Human GPR8 ligand (1-20) was perceived depending on the concentration of membrane fraction.
The inhibition of binding for GPR7 receptor or GPR8 receptor in the test sample (the inhibition rate (%)) is represented by the ratio of the values obtained by subtracting a radioactivity (X) remaining on the filter in the case where the test sample and of [Phe², ¹²⁵I-Tyr¹⁰]-Human GPR8 ligand (1-20) were added from the maximum binding (TB) to the specific binding (SB) ((TB−X)/SB×100(%)).
(§3) The IC₅₀ values were 0.13 nM and 0.039 nM, respectively. […]

[6] = target: T2, TGR26, rat-derived G protein-coupled …; test: radioligand filter binding, membrane fraction of TGR26 expressing CHO cells
Description: as §1

[7] = target: T3, Human GPR8 receptor protein; test: radioligand filter binding, membrane fraction of Human GPR8 expressing CHO cells
Description: Using [¹²⁵I]-labeled hGPR8L(1-23) prepared as described in Reference Example 42 and a cell membrane fraction prepared from Human GPR8 expressing cells by the similar manner as described in Reference Example 6, a receptor binding assay was carried out as follows.
as §2, with “The reaction was done at 25° C. for 60 minutes, and the reaction mixture was filtered by suction filtration using Whatman glassfilter (GF-F) treated with polyethyleneimine.” left out, “Since the specific binding in the case where [¹²⁵I-Tyr¹⁰]-hGPR8L(1-23) was used, was twice as much as that in the case where [¹²⁵1-Tyr²]-hGPR8L(1-23) was used, in practice, [¹²⁵I-Tyr¹⁰]-hGPR8L(1-23) was used in the assay. When the concentration of membrane fraction was changed, a specific binding of [¹²⁵I-Tyr¹⁰]-hGPR8L(1-23) was perceived depending on the concentration of membrane fraction.” left out

Human GPR7 [8] = target: T1, Human GPR7; test: radioligand filter binding, membrane fraction of Human GPR7 expressing CHO cells
Human GPR7 [9] = target: T1, Human GPR7; test: radioligand filter binding, membrane fraction of GPR7 expressing CHO cells
Description: (§4) Cell membrane fractions prepared from GPR7 expressing CHO cells and GPR8 expressing CHO cells, were diluted to various concentration with assay buffer (25 mM Tris-HCl, 5 mM EDTA, 0.05% CHAPS, 0.1% BSA, 0.5 mM PMSF, 1 μg/ml Pepstatin, 4 μg/ml E-64, 20 μg/ml Leupeptin, pH7.4), and 200 μl each of the diluent was dispensed into polypropilene test tube (Falcon 2053). In order to determine an amount of maximum binding, 2 μl of DMSO and 2 μl of 7 nM [Phe², ¹²⁵I-Tyr¹⁰]-Human GPR8 ligand (1-20) were added to the membrane fraction solution. Further, in order to determine a non-specific binding, 2 μl of 100 μM hGPR8L(1-23)/DMSO solution and 2 μl of 7 nM [Phe², ¹²⁵I-Tyr¹⁰]-Human GPR8 ligand (1-20) were added to the membrane fraction solution. The reaction was done at 25° C. for 75 minutes, and the reaction mixture was filtered by suction filtration using Whatman glassfilter (GF-F) treated with polyethyleneimine. After filtration, a radioactivity remaining on the filter was counted using γ-counter, and an amount of specific binding was estimated by subtracting an amount of non-specific binding from an amount of maximum binding. When the concentration of membrane fraction was changed, a specific binding of [Phe², ¹²⁵I-Tyr¹⁰]-Human GPR8 ligand (1-20) was perceived depending on the concentration of membrane fraction.
as §3

[10] = target: T3, Human GPR8 receptor protein; test: radioligand filter binding, membrane fraction of GPR8 expressing CHO cells
Description: as §4, §3

B2: [^125I-Tyr^10]-hGPR8L(1-23) (peptide)
peptide: WYKHVASPRY(125I)HTVGRAAGLLMGL
binding result [6]: binds
binding result [7]: binds
binding result (Human GPR7 [8]): binds

B3: [Phe^2, ^125I-Tyr^10]-Human GPR8 ligand (1-20) (peptide)
peptide: WFKHVASPRY(125I)HTVGRAAGLL
notes: Radioligand made from [Phe2]; also called labeled [Phe^2]; Human GPR8 ligand (1-20)
binding result (Human GPR7 [9]): binds
binding result [10]: binds

More lines, now with the values ahead:

inhibition of intracellular cAMP production (IC50) (Human GPR7 [1]): 0.025 nM
Promoting activity to GTPγS binding (EC50 nM) (Human GPR7 [2]): 0.74 nM
IC50 [3]: 0.12 nM
IC50 [4]: 0.25 nM
IC50 (Human GPR7 [5]): 0.13 nM
B1: human homologue of GPR8 ligand peptide consisting of 23 residues (peptide)
peptide: WYKHVASPRYHTVGRAAGLLMGL
notes: also called hGPR8L(1-23); Human GPR8 ligand (1-23)

binding result [7]: binds
B4: [^125I-Tyr^2]-hGPR8L(1-23) (peptide)
peptide: WY(125I)KHVASPRYHTVGRAAGLLMGL
